This is an account of results in paper PMC7089733.

In this series the target is L7Ae;Nop5;fibrillarin L113K;V223E ((printed as Pf);(printed as Pf);(printed as Pf)) (UniProt Q8U160+Q8U4M1+Q8U4M2). Put plainly: NMR PRE + SAXS/SANS ensemble. As to conditions: half-loaded mono-RNP, 50 mM NaPi, 500 mM NaCl, pH 6.6, 100% D2O (NMR), 55 C, SANS in 42%:58% D2O:H2O, substrate at 1.2-1.25 molar equivalents, scale: % [on,off] conformers.

Consider “GCGAGCAAUGAUGAGUGAUGGGCGAACUGAGCUCGAAAGAGCAAUGAUGACGGAGGUGAUCACUGAGCUCGC / GCUUCGCCCAUCAC [st-sR26 + substrate D']”, for which the binding signal was determined as 66.
For the sequence “GCGAGCAAUGAUGAGUGAUGGGCGAACUGAGCUCGAAAGAGCAAUGAUGACGGAGGUGAUCACUGAGCUCGC / GUAGAUCACCUCCG [st-sR26 + substrate D]”, the binding signal (ddG vs substrate D' 0.86 +/- 0.55 kcal/mol) came to 34.
